Reference: patent EP2814500B1 (Ecole Polytechnique Fédérale de Lausanne (EPFL), dated 2020)

Experiments:
[1] = target: T1, mouse glycophorin-A (GYPA) on the mouse erythrocyte surface (mouse, UniProt P14220 1-168); test: photo-crosslinking of biotinylated peptide on whole mouse erythrocytes, streptavidin Western blot
[2] = target: T1, mouse glycophorin-A (GYPA) on the mouse …; test: photo-crosslinking of biotinylated peptide on whole mouse erythrocytes, streptavidin bead purification, streptavidin and anti-GYPA Western blots

binding result [1] | binding result [2] | Binder
no binding |  | H-PLLTVGMDLWPWGGSGCRG-NH2 (not fully specified; also: conjugated to Mts-Atf-biotin, site not given here, Control peptide with the same residues as ERY1 in scrambled order) [mismatch peptide (H2N-PLLTVGMDLWPWGGSGCRG-CONH2) conjugated to Mts-Atf-biotin]
 | binds | H-WMVLPWLPGTLDGGSGCRG-NH2 (also: conjugated to Mts-Atf-biotin, site not given here, Synthetic peptide: the ERY1 12-mer followed by a GGSG linker, Cys and Arg-Gly; also called biotinylated soluble peptide; peptide-biotin complex)
